From US20230272029A1, “CO-AGONISTS AT GLP-1 AND GIP RECEPTORS SUITABLE FOR ORAL DELIVERY” (Novo Nordisk A/S, priority 2020, published 2023)
Starred links: 1 amine or outer side, 2 acyl side, 3 side chain; linkers in the order of their positions; H or OH if unused. Non-standard residues stand in square brackets, D forms with d. Groups on a side chain read outwards from the residue. No end group written: not given here. *: point of attachment. C20 diacid = O=C(O)CCCCCCCCCCCCCCCCCCC(=O)*; C18 diacid = O=C(O)CCCCCCCCCCCCCCCCC(=O)*; γGlu = O=C(O)[C@H](CCC(=O)[*:2])N[*:1]; εLys = N[C@@H](CCCCN[*:1])C(=O)[*:2]; Aib = CC(C)(N)C(=O)O

T1: human GIP receptor (human, UniProt P48546 22-466)
T1 sequence (looked up): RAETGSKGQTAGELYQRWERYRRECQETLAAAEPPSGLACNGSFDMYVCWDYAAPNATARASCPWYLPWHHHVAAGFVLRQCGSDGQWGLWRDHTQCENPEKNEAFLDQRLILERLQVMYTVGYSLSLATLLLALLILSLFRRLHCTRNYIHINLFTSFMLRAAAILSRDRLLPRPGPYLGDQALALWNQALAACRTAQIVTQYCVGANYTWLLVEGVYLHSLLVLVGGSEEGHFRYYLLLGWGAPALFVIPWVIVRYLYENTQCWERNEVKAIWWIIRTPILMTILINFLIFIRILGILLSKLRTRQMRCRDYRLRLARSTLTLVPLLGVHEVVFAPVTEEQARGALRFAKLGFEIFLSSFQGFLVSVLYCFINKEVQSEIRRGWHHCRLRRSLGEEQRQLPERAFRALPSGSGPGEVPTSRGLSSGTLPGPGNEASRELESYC


Tests used:
human GIP receptor = target: T1, human GIP receptor; experiment: cell-based or functional assay
human GLP-1 receptor = human GLP-1 receptor (human, UniProt P43220 24-463); experiment: cell-based or functional assay

Binder	hGIPR, CRE Luc 0% HSA EC50 (pM) (human GIP receptor)	hGIPR, CRE Luc 1% HSA EC50 (pM) (human GIP receptor)	hGLP-1R, CRE Luc 0% HSA EC50 (pM) (human GLP-1 receptor)	hGLP-1R, CRE Luc 1% HSA EC50 (pM) (human GLP-1 receptor)
Y[Aib]EGTFTSDYSIALEK([εLys-εLys-γGlu-C18 diacid])QAAREFINWLLAGGPSSGAPPPS-OH (N-terminus assumed; SMILES CC[C@H](C)[C@H](NC(=O)[C@H](CO)NC(=O)[C@H](Cc1ccc(O)cc1)NC(=O)[C@H](CC(=O)O)NC(=O)[C@H](CO)NC(=O)[C@@H](NC(=O)[C@H](Cc1ccccc1)NC(=O)[C@@H](NC(=O)CNC(=O)[C@H](CCC(=O)O)NC(=O)C(C)(C)NC(=O)[C@@H](N)Cc1ccc(O)cc1)[C@@H](C)O)[C@@H](C)O)C(=O)N[C@@H](C)C(=O)N[C@@H](CC(C)C)C(=O)N[C@@H](CCC(=O)O)C(=O)N[C@@H](CCCCNC(=O)[C@@H](N)CCCCNC(=O)[C@@H](N)CCCCNC(=O)CC[C@H](NC(=O)CCCCCCCCCCCCCCCCC(=O)O)C(=O)O)C(=O)N[C@@H](CCC(N)=O)C(=O)N[C@@H](C)C(=O)N[C@@H](C)C(=O)N[C@@H](CCCNC(=N)N)C(=O)N[C@@H](CCC(=O)O)C(=O)N[C@@H](Cc1ccccc1)C(=O)N[C@H](C(=O)N[C@@H](CC(N)=O)C(=O)N[C@@H](Cc1c[nH]c2ccccc12)C(=O)N[C@@H](CC(C)C)C(=O)N[C@@H](CC(C)C)C(=O)N[C@@H](C)C(=O)NCC(=O)NCC(=O)N1CCC[C@H]1C(=O)N[C@@H](CO)C(=O)N[C@@H](CO)C(=O)NCC(=O)N[C@@H](C)C(=O)N1CCC[C@H]1C(=O)N1CCC[C@H]1C(=O)N1CCC[C@H]1C(=O)N[C@@H](CO)C(=O)O)[C@@H](C)CC) [Compound No. 14]	11.6	580	5.4	306
Y[Aib]EGTFTSDYSILLEK([εLys-εLys-γGlu-C18 diacid])QAAREFINWLLAGGPSSGAPPPS-OH (N-terminus assumed; SMILES CC[C@H](C)[C@H](NC(=O)[C@H](Cc1ccccc1)NC(=O)[C@H](CCC(=O)O)NC(=O)[C@H](CCCNC(=N)N)NC(=O)[C@H](C)NC(=O)[C@H](C)NC(=O)[C@H](CCC(N)=O)NC(=O)[C@H](CCCCNC(=O)[C@@H](N)CCCCNC(=O)[C@@H](N)CCCCNC(=O)CC[C@H](NC(=O)CCCCCCCCCCCCCCCCC(=O)O)C(=O)O)NC(=O)[C@H](CCC(=O)O)NC(=O)[C@H](CC(C)C)NC(=O)[C@H](CC(C)C)NC(=O)[C@@H](NC(=O)[C@H](CO)NC(=O)[C@H](Cc1ccc(O)cc1)NC(=O)[C@H](CC(=O)O)NC(=O)[C@H](CO)NC(=O)[C@@H](NC(=O)[C@H](Cc1ccccc1)NC(=O)[C@@H](NC(=O)CNC(=O)[C@H](CCC(=O)O)NC(=O)C(C)(C)NC(=O)[C@@H](N)Cc1ccc(O)cc1)[C@@H](C)O)[C@@H](C)O)[C@@H](C)CC)C(=O)N[C@@H](CC(N)=O)C(=O)N[C@@H](Cc1c[nH]c2ccccc12)C(=O)N[C@@H](CC(C)C)C(=O)N[C@@H](CC(C)C)C(=O)N[C@@H](C)C(=O)NCC(=O)NCC(=O)N1CCC[C@H]1C(=O)N[C@@H](CO)C(=O)N[C@@H](CO)C(=O)NCC(=O)N[C@@H](C)C(=O)N1CCC[C@H]1C(=O)N1CCC[C@H]1C(=O)N1CCC[C@H]1C(=O)N[C@@H](CO)C(=O)O) [Compound No. 15]	7.1	138	5	130
Y[Aib]EGTFTSDYSIYLEEK([εLys-εLys-γGlu-C18 diacid])AAREFINWLLAGGPSSGAPPPS-OH (N-terminus assumed; SMILES CC[C@H](C)[C@H](NC(=O)[C@H](Cc1ccccc1)NC(=O)[C@H](CCC(=O)O)NC(=O)[C@H](CCCNC(=N)N)NC(=O)[C@H](C)NC(=O)[C@H](C)NC(=O)[C@H](CCCCNC(=O)[C@@H](N)CCCCNC(=O)[C@@H](N)CCCCNC(=O)CC[C@H](NC(=O)CCCCCCCCCCCCCCCCC(=O)O)C(=O)O)NC(=O)[C@H](CCC(=O)O)NC(=O)[C@H](CCC(=O)O)NC(=O)[C@H](CC(C)C)NC(=O)[C@H](Cc1ccc(O)cc1)NC(=O)[C@@H](NC(=O)[C@H](CO)NC(=O)[C@H](Cc1ccc(O)cc1)NC(=O)[C@H](CC(=O)O)NC(=O)[C@H](CO)NC(=O)[C@@H](NC(=O)[C@H](Cc1ccccc1)NC(=O)[C@@H](NC(=O)CNC(=O)[C@H](CCC(=O)O)NC(=O)C(C)(C)NC(=O)[C@@H](N)Cc1ccc(O)cc1)[C@@H](C)O)[C@@H](C)O)[C@@H](C)CC)C(=O)N[C@@H](CC(N)=O)C(=O)N[C@@H](Cc1c[nH]c2ccccc12)C(=O)N[C@@H](CC(C)C)C(=O)N[C@@H](CC(C)C)C(=O)N[C@@H](C)C(=O)NCC(=O)NCC(=O)N1CCC[C@H]1C(=O)N[C@@H](CO)C(=O)N[C@@H](CO)C(=O)NCC(=O)N[C@@H](C)C(=O)N1CCC[C@H]1C(=O)N1CCC[C@H]1C(=O)N1CCC[C@H]1C(=O)N[C@@H](CO)C(=O)O) [Compound No. 38]	12.4	815	3.1	259
Y[Aib]EGTFTSDYSIYLEK([εLys-εLys-γGlu-C20 diacid])QAAREFINWLLAGGPSSGAPPPS-OH (N-terminus assumed; SMILES CC[C@H](C)[C@H](NC(=O)[C@H](Cc1ccccc1)NC(=O)[C@H](CCC(=O)O)NC(=O)[C@H](CCCNC(=N)N)NC(=O)[C@H](C)NC(=O)[C@H](C)NC(=O)[C@H](CCC(N)=O)NC(=O)[C@H](CCCCNC(=O)[C@@H](N)CCCCNC(=O)[C@@H](N)CCCCNC(=O)CC[C@H](NC(=O)CCCCCCCCCCCCCCCCCCC(=O)O)C(=O)O)NC(=O)[C@H](CCC(=O)O)NC(=O)[C@H](CC(C)C)NC(=O)[C@H](Cc1ccc(O)cc1)NC(=O)[C@@H](NC(=O)[C@H](CO)NC(=O)[C@H](Cc1ccc(O)cc1)NC(=O)[C@H](CC(=O)O)NC(=O)[C@H](CO)NC(=O)[C@@H](NC(=O)[C@H](Cc1ccccc1)NC(=O)[C@@H](NC(=O)CNC(=O)[C@H](CCC(=O)O)NC(=O)C(C)(C)NC(=O)[C@@H](N)Cc1ccc(O)cc1)[C@@H](C)O)[C@@H](C)O)[C@@H](C)CC)C(=O)N[C@@H](CC(N)=O)C(=O)N[C@@H](Cc1c[nH]c2ccccc12)C(=O)N[C@@H](CC(C)C)C(=O)N[C@@H](CC(C)C)C(=O)N[C@@H](C)C(=O)NCC(=O)NCC(=O)N1CCC[C@H]1C(=O)N[C@@H](CO)C(=O)N[C@@H](CO)C(=O)NCC(=O)N[C@@H](C)C(=O)N1CCC[C@H]1C(=O)N1CCC[C@H]1C(=O)N1CCC[C@H]1C(=O)N[C@@H](CO)C(=O)O) [Compound No. 16]	13.4	804	3.1	321
YAEGTFTSDYSIYLEK([εLys-εLys-γGlu-C18 diacid])QAAREFINWLLAGGPSSGAPPPS-OH (N-terminus assumed; SMILES CC[C@H](C)[C@H](NC(=O)[C@H](Cc1ccccc1)NC(=O)[C@H](CCC(=O)O)NC(=O)[C@H](CCCNC(=N)N)NC(=O)[C@H](C)NC(=O)[C@H](C)NC(=O)[C@H](CCC(N)=O)NC(=O)[C@H](CCCCNC(=O)[C@@H](N)CCCCNC(=O)[C@@H](N)CCCCNC(=O)CC[C@H](NC(=O)CCCCCCCCCCCCCCCCC(=O)O)C(=O)O)NC(=O)[C@H](CCC(=O)O)NC(=O)[C@H](CC(C)C)NC(=O)[C@H](Cc1ccc(O)cc1)NC(=O)[C@@H](NC(=O)[C@H](CO)NC(=O)[C@H](Cc1ccc(O)cc1)NC(=O)[C@H](CC(=O)O)NC(=O)[C@H](CO)NC(=O)[C@@H](NC(=O)[C@H](Cc1ccccc1)NC(=O)[C@@H](NC(=O)CNC(=O)[C@H](CCC(=O)O)NC(=O)[C@H](C)NC(=O)[C@@H](N)Cc1ccc(O)cc1)[C@@H](C)O)[C@@H](C)O)[C@@H](C)CC)C(=O)N[C@@H](CC(N)=O)C(=O)N[C@@H](Cc1c[nH]c2ccccc12)C(=O)N[C@@H](CC(C)C)C(=O)N[C@@H](CC(C)C)C(=O)N[C@@H](C)C(=O)NCC(=O)NCC(=O)N1CCC[C@H]1C(=O)N[C@@H](CO)C(=O)N[C@@H](CO)C(=O)NCC(=O)N[C@@H](C)C(=O)N1CCC[C@H]1C(=O)N1CCC[C@H]1C(=O)N1CCC[C@H]1C(=O)N[C@@H](CO)C(=O)O) [Compound No. 17]	34.9	1320	5.2	257
